Biological target: T1, BCMA-Fc, a recombinant protein where the extracellular domain of human BCMA protein is linked to human Fc (human, UniProt Q02223 1-54)
T1 construct: extracellular domain; Negative control in panning and ELISA; also called negative control-Fc
T1 sequence (looked up): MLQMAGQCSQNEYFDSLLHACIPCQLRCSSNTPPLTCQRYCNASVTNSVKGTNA
Experiment: ELISA, wells coated with BCMA-Fc (negative control), monoclonal scFv supernatant, anti-HA HRP detection, OD (450-650nm)
Protocol: Specifically, 100 ng per well of recombinant human ROR1-Fc prepared in Embodiment 1-1 or FBMA-Fc was placed in a 96-well microtiter plate (Nunc-Immuno Plate, NUNC, USA), which was coated overnight at 4° C. BCMA-Fc is the protein used as a negative control, a recombinant protein where the extracellular domain of human BCMA protein is linked to human Fc. 200 μL each of 3% BSA was placed in each well, and blocked for 2 hours at 37° C.
The monoclonal phage supernatant was prepared by mixing 1:1 with 3% BSA, and 100 μL each of this mixture was loaded into the wells and reacted for 2 hours at 37° C. After washing 5 times with 300 μL PBST, anti-HA HRP binding antibody was added, reacted for 1 hour at 37° C., then washed 5 times with PBST. 100 μL TMB (Tetramethylbenzidine, Sigma, T0440) was added for color development, and then 50 μL 1N H2SO₄ was added to stop the reaction. Absorbance was measured at 450 nm and 650 nm, and clones where the absorbance at 450 nm and 650 nm was […] when coated with 1 /mL ROR1 were screened (FIG. 1)

B1: anti-ROR1 monoclonal phage antibody AB4 (soluble scFv) (scFv, V domains shown)
VH: EVQLLESGGGLVQPGGSLRLSCAASGFTFSSYDMSWVRQAPGKGLEWVSWISPDSGSIYYADSVKGRFTISRDNSKNTLYLQMNSLRAEDTAVYYCARPTGRFDYWGQGTLVTVSS
VL: QSVLTQPPSASGTPGQRVTISCSGSSSNIGNNNVNWYQQLPGTAPKLLIYYDNKRPSGVPDRFSGSKSGTSASLAISGLRSEDEADYYCGTWDASLSGYVFGGGTKLTVLG
notes: Tested as soluble scFv in culture supernatant, detected through an HA tag
B1: no binding.

B2: anti-ROR1 monoclonal phage antibody DG6 (soluble scFv) (scFv, V domains shown)
VH: EVQLLESGGGLVQPGGSLRLSCAASGFTFSDYDMSWVRQAPGKGLEWVSVISPDGGSIYYADSVKGRFTISRDNSKNTLYLQMNSLRAEDTAVYYCARDVVECNMNPCSYDNAMDVWGQGTLVTVSS
VL: QSVLTQPPSASGTPGQRVTISCSGSSSNIGSNYVSWYQQLPGTAPKLLIYDDSHRPSGVPDRFSGSKSGTSASLAISGLRSEDEADYYCGAWDDSLSGYVFGGGTKLTVLG
notes: as for B1
B2: no binding.

B3: anti-ROR1 monoclonal phage antibody C2E3 (soluble scFv) (scFv, V domains shown)
VH: EVQLLESGGGLVQPGGSLRLSCAASGFTFSNYAMSWVRQAPGKGLEWVSSISHNSGSTYYADSVKGRFTISRDNSKNTLYLQMNSLRAEDTAVYYCAKFISARKSLGRSYSNGMDVWGQGTLVTVSS
VL: QSVLTQPPSASGTPGQRVTISCTGSSSNIGSNDVTWYQQLPGTAPKLLIYADSKRPSGVPDRFSGSKSGTSASLAISGLRSEDEADYYCGTWDYSLSGYVFGGGTKLTVLG
notes: as for B1
B3: no binding.

B4: anti-ROR1 monoclonal phage antibody CC9 (soluble scFv) (scFv, V domains shown)
VH: EVQLLESGGGLVQPGGSLRLSCAASGFTFSSYDMSWVRQAPGKGLEWVSGISHGSGNKYYADSVKGRFTISRDNSKNTLYLQMNSLRAEDTAVYYCAKRLSLRRRPSYYSDNAMDVWGQGTLVTVSS
VL: QSVLTQPPSASGTPGQRVTISCTGSSSNIGNNAVNWYQQLPGTAPKLLIYYDSNRPSGVPDRFSGSKSGTSASLAISGLRSEDEADYYCGAWDDSLSGYVFGGGTKLTVLG
notes: as for B1
B4: no binding.

B5: anti-ROR1 monoclonal phage antibody D2B12 (soluble scFv) (scFv, V domains shown)
VH: EVQLLESGGGLVQPGGSLRLSCAASGFTFSNYDMSWVRQAPGKGLEWVSSISPSSGSSIYYADSVKGRFTISRDNSKNTLYLQMNSLRAEDTAVYYCAKAPGWCQAPSCYYDNAMDVWGQGTLVTVSS
VL: QSVLTQPPSASGTPGQRVTISCSGSSSNIGNNDVSWYQQLPGTAPKLLIYDDSQRPSGVPDRFSGSKSGTSASLAISGLRSEDEADYYCGAWDDSLSGYVFGGGTKLTVLG
notes: as for B1
B5: no binding.

B6: anti-ROR1 monoclonal phage antibody A2F2 (soluble scFv) (scFv, V domains shown)
VH: EVQLLESGGGLVQPGGSLRLSCAASGFTFSDYYMSWVRQAPGKGLEWVSSISPDGSNTYYADSVKGRFTISRDNSKNTLYLQMNSLRAEDTAVYYCAKNLRAFDYWGQGTLVTVSS
VL: QSVLTQPPPASGTPGQRVTISCSGSSSNIGSNTVYWYQQLPGTAPKLLIYANSQRPSGVPDRFSGSKSGTSASLAISGLRSEDEADYYCGSWDYSLSGYVFGGGTKLTVLG
notes: as for B1
B6: no binding.

B7: anti-ROR1 monoclonal phage antibody BA6 (soluble scFv) (scFv, V domains shown)
VH: EVQLLESGGGLVQPGGSLRLSCAASGFTFSNYDMSWVRQAPGKGLEWVSAIYHSGSSKYYADSVKGRFTISRDNSKNTLYLQMNSLRAEDTAVYYCARGGNGAWDTGFDYWGQGTLVTVSS
VL: QSVLTQPPSASGTPGQRVTISCSGSSSNIGSNDVSWYQQLPGTAPKLLIYYDNNRPSGVPDRFSGSKSGTSASLAISGLRSEDEADYYCGAWDDSLSGYVFGGGTKLTVLG
notes: as for B1
B7: no binding.

B8: anti-ROR1 monoclonal phage antibody A2F3 (soluble scFv) (scFv, V domains shown)
VH: EVQLLESGGGLVQPGGSLRLSCAASGFTFSSYDMSWVRQAPGKGLEWVSWISPGGGSKYYADSVKGRFTISRDNSKNTLYLQMNSLRAEDTAVYYCARVNGRFDYWGQGTLVTVSS
VL: QSVLTQPPSASGTPGQRVTISCSGSSSNIGNNNVSWYQQLPGTAPKLLIYADSHRPSGVPDRFSGSKSGTSASLAISGLRSEDEADYYCATWDYSLSGYVFGGGTKLTVLG
notes: as for B1
B8: no binding.

Reference: patent US20210069342A1 (LEGOCHEM BIOSCIENCES, published 2021)
